From PMC7673040

Experiments:
[1] = target: ribosome-nascent chain complex bearing the first ~90 amino acids of pPL(ss), labelled with BODIPY-FL on the nascent chain (bovine); assay: other fluorescence titration; equilibrium FRET titration: SRP^TMR titrated into 1 nM RNC^BDP; donor emission at 517 nm; fit to Eq. (4); 25 °C, Assay buffer with 1 mg/mL BSA; no NAC
[2] = target: ribosome-nascent chain complex bearing the first ~90 amino acids of pPL(ss), labelled with BODIPY-FL on the nascent chain (bovine); assay: other fluorescence titration; equilibrium FRET titrations of SRP^TMR into 1 nM RNC^BDP with unlabeled NAC premixed (0-400 nM for RNC(ss), 0-62.5 nM for RNC(ssmt)); global fit to the anti-cooperative co-binding model, Eq. (8); 25 °C, Assay buffer with 1 mg/mL BSA
[3] = target: ribosome-nascent chain complex bearing the first ~90 amino acids of pPL(ssmt), labelled with BODIPY-FL on the nascent chain (bovine) (UniProt P01239); assay: as above
[4] = target: signal recognition particle (SRP), human, labelled with Cy3B on SRP54 (C47) (human) (UniProt P61011); assay: stopped-flow FRET kinetics
[5] = target: signal recognition particle (SRP), human, labelled with Cy3B on SRP54 (C47) (human) (UniProt P61011); assay: stopped-flow FRET kinetics; as a1 but on RNC(ssmt2) with HSW(RRL)
[6] = target: signal recognition particle (SRP), human, labelled with Cy3B on SRP54 (C47) (human) (UniProt P61011); assay: stopped-flow FRET kinetics; as a1 but on RNC(ssmt2); no NAC, no HSW
[7] = target: signal recognition particle (SRP), human, labelled with Cy3B on SRP54 (C47) (human) (UniProt P61011); assay: stopped-flow FRET kinetics; as a1 but on RNC(ssmt2) with 300 nM NAC
[8] = target: signal recognition particle (SRP), human, labelled with Cy3B on SRP54 (C47) (human) (UniProt P61011); assay: stopped-flow FRET kinetics; as a1 but on RNC(ssmt) with 300 nM NAC (saturating)
[9] = target: signal recognition particle (SRP), human, labelled with Cy3B on SRP54 (C47) (human) (UniProt P61011); assay: stopped-flow FRET kinetics; as a1 but SRP^Cy3B pre-incubated with 200 nM RNC(ssmt); no NAC, no HSW
[10] = target: signal recognition particle (SRP), human, labelled with Cy3B on SRP54 (C47) (human) (UniProt P61011); assay: stopped-flow FRET kinetics; as a1, on RNC(ssmt) of different nascent chain lengths, no NAC; fit to a constant kon
[11] = target: signal recognition particle (SRP), human, labelled with Cy3B on SRP54 (C47) (human) (UniProt P61011); assay: stopped-flow FRET kinetics; as a1 but on RNC(ssmt) with HSW(RRL) (high salt wash from 200 nM rabbit reticulocyte ribosome)
[12] = target: signal recognition particle (SRP), human, labelled with Cy3B on SRP54 (C47) (human) (UniProt P61011); assay: stopped-flow FRET kinetics; as a1, on RNC(ssmt) of different nascent chain lengths, with 300 nM NAC; fit to a constant kon
[13] = target: signal recognition particle (SRP), human, labelled with Cy3B on SRP54 (C47) (human) (UniProt P61011); assay: stopped-flow FRET kinetics; as a1, on RNC(ss) of different nascent chain lengths, no NAC; kon against nascent chain length fit to Eq. (18)
[14] = target: signal recognition particle (SRP), human, labelled with Cy3B on SRP54 (C47) (human) (UniProt P61011); assay: stopped-flow FRET kinetics; as a1, on RNC(ss) of different nascent chain lengths, with 300 nM NAC; kon against nascent chain length fit to Eq. (18)

Row | Kd [1] | KD for NAC-bound RNC (α•Kd,SRP) [2] | Kd [2] | KD for NAC-bound RNC (α•Kd,SRP) [3] | kon [4] | fold lower kon than on RNC(ss) [5] | fold lower kon than on RNC(ss) [6] | fold lower kon than on RNC(ss) [7] | fold lower kon than on RNC(ss) [8] | kon [9] | kon [10] | fold reduction of kon by HSW(RRL) [11] | kon [12] | kon,max (fit of kon against nascent chain length) [13] | kon,min (fit of kon against nascent chain length) [13] | kon,max (fit of kon against nascent chain length) [14] | kon,min (fit of kon against nascent chain length) [14] | Substance
1 | 0.44 nM | 2.4 nM | 0.36 nM | 4.5 nM | – | – | – | – | – | – | – | – | – | – | – | – | – | signal recognition particle (SRP), human, labelled with tetramethylrhodamine (TMR) at residue 12 of SRP54 (from UniProt P61011 1-504; P09132 1-144; P49458 1-86; P37108 1-136; Q9UHB9 1-627; O76094 1-671) (complex)
2 | – | – | – | – | 1e+06 M⁻¹ s⁻¹ | 100 fold | 20 fold | 100 fold | 40 fold | 500000 M⁻¹ s⁻¹ | 570000 M⁻¹ s⁻¹ | 20 fold | 13000 M⁻¹ s⁻¹ | 940000 M⁻¹ s⁻¹ | 400000 M⁻¹ s⁻¹ | 1.3e+06 M⁻¹ s⁻¹ | 22000 M⁻¹ s⁻¹ | soluble SRP receptor SRαβΔTM with the GTPase-deficient mutation SRα R458A, labelled with Atto647n (from UniProt P08240 1-638; Q9Y5M8 1-271) (complex)
